Test results as given in paper doi:10.1101/2024.12.02.626349 (bioRxiv, 2024).

Molecular target: ^15N-labeled wild-type untagged ubiquitin (UniProt P0CG48 1-76, ^15N-labeled)
Assay: NMR titration

Kd: 124 µM
B1: 6xHis-tagged UBR4-UBL (residues 4340-4463) (domain or fragment)
chain: YPEENEVTEFFVTLEKDPQQEDFLQGRMPGNPYSSNEPGIGPLMRDIKNKICQDCDLVALLEDDSGMELLVNNKIISLDLPVAEVYKKVWCTTNEGEPMRIVYRMRGLLGDATEEFIESLDSTT
